Reference: patent US20190142971A1, “FORMULATION AND DELIVERY OF MODIFIED NUCLEOSIDE, NUCLEOTIDE, AND NUCLEIC ACID COMPOSITIONS” (ModernaTX, Inc., priority 2013, published 2019)
Where two headings read alike, the source gives them in different places.

Tests used:
C57/BL6 mice = assay: Example 47: luciferase mRNA IM, SC, IV in mice, bioluminescence imaging (Tables 76-78); type: in vivo
Experimental: Modified RNA was delivered to C57/BL6 mice intramuscularly, subcutaneously, or intravenously to evaluate the bio-distribution of modified RNA using luciferase. A formulation buffer used with all delivery methods contained 150 mM sodium chloride, 2 mM calcium chloride, 2 mM Na+-phosphate which included 1.4 mM monobasic sodium phosphate and 0.6 mM of dibasic sodium phosphate, and 0.5 mM ethylenediaminetetraacetic acid (EDTA) was adjusted using sodium hydroxide to reach a final pH of 6.5 before being filtered and sterilized. A 1× concentration was used as the delivery buffer. To create the lipoplexed solution delivered to the mice, in one vial […] was equilibrated for 10 minutes at room temperature in the delivery buffer and in a second vial 10 μl RNAiMAX™ was equilibrated for 10 minutes at room temperature in the delivery buffer. After equilibrium, the vials were combined and delivery buffer was added to reach a final volume of 100 μl which was then incubated for 20 minutes at room temperature. Luciferin was administered by intraperitoneal injection (IP) at 150 mg/kg to each mouse prior to imaging during the plateau phase of the luciferin exposure curve which was between 15 and 30 minutes. To create luciferin, 1 g of D-luciferin potassium or sodium salt was dissolved in 66.6 ml of distilled phosphate buffer solution (DPBS), not containing Mg2+ or Ca2+, to make a 15 mg/ml solution. The solution was gently mixed and passed through a 0.2 μm syringe filter, before being purged with nitrogen, aliquoted and frozen at −80° C. while being protected from light as much as possible. The solution was thawed using a waterbath if luciferin was not dissolved, gently mixed and kept on ice on the day of dosing.
Whole body images were taken of each mouse 2, 8 and 24 hours after dosing. Tissue images and serum was collected from each mouse 24 hours after dosing. Mice administered doses intravenously had their liver, spleen, kidneys, lungs, heart, peri-renal adipose tissue and thymus imaged. Mice administered doses intramuscularly or subcutaneously had their liver, spleen, kidneys, lungs, peri-renal adipose tissue, and muscle at the injection site. From the whole body images the bioluminescence was measured in photon per second for each route of administration and dosing regimen.
The bioluminescence average for the luciferase expression signals for each group at 2, 8 and 24 hours after dosing are shown in Table 76.
(§1) Mice were subcutaneously (S.C.) administered either modified luciferase mRNA (Naked-Luc), lipoplexed modified luciferase mRNA (Lipoplex-luc), lipoplexed modified G-CSF mRNA (Lipoplex-G-CSF) or the formation buffer at a single dose of 50 μg of modified mRNA in an injection volume of 100 μl for each formulation. The bioluminescence average for the luciferase expression signals for each group at 2, 8 and 24 hours after dosing are shown in Table 77.
as §1, with “intravenously (I.V.)” for “subcutaneously (S.C.)”, “signal in the spleen from” for “signals for”, “2” for “2, 8 and 24”, “is” for “are”, “78.” for “77.”

[1] = tested on: peripheral blood mononuclear cells (PBMC); assay: Example 56: PBMC IFN-alpha and TNF-alpha ELISA and protein/cytokine ratio (Tables 86, 87); type: cell-based, human
Experimental: 480 ng of G-CSF mRNA modified with 5-methylcytosine (5mC) and pseudouridine (pseudoU) or unmodified G-CSF mRNA was transfected with 0.4 uL of Lipofectamine 2000 into peripheral blood mononuclear cells (PBMC) from three normal blood donors (D1, D2, and D3). […] The supernatant was harvested and run by ELISA 22 hours after transfection to determine the protein expression. The expression of IFN-alpha and TNF-alpha may be a secondary effect from the transfection of the G-CSF mRNA.
As mentioned above, using PBMC as an in vitro assay system it is possible to establish a correlation between translation (in this case G-CSF protein production) and cytokine production (in this case exemplified by IFN-alpha protein production). Better protein production is correlated with lower induction of innate immune activation pathway, and the percentage modification of a chemistry can be judged favorably based on this ratio (Table 87).

BJ fibroblasts = conditions: for IFN-beta / IL-6: 250 ng transfected daily for 5 days
[2] = Example 61: storage stability of G-CSF mRNA, gel electrophoresis (Bio-Rad EXPERION); type: physicochemical
Experimental: Stability experiments were conducted to obtain a better understanding of storage conditions to retain the integrity of modified RNA. […] After the mRNA had been stored for 0 hours, 2 hours, 6 hours, 24 hours, 48 hours, 5 days and 14 days, the mRNA was analyzed by gel electrophoresis using a Bio-Rad EXPERION™ system. The modified, unmodified and lipoplexed G-CSF mRNA was also stored in RNASTABLE® (Biomatrica, Inc. San Diego, Calif.) at 40° C. or water at −80° C. or 40° C. for 35 days before being analyzed by gel electrophoresis.
mRNA samples stored at 4° C., 25° C. and 37° C. were stored in 1×TE buffer or the formulation buffer (150 mM sodium chloride, 2 mM calcium chloride, 2 mM phosphate, 0.5 mM EDTA at a pH of 6.5). The mRNA stored at 4° C. was stable to at least 60 days in both the TE and formulation buffer. At 25° C. the mRNA in formulation buffer was stable out to 14 days and the TE buffer was stable out to at least 6 days. Storage of mRNA in the formulation buffer at 37° C. was stable to 6 days compared to the TE buffer which was stable only until 4 days.

Sprague Dawley rats = assay: Example 60: G-CSF/Factor IX mRNA IM in rats, serum G-CSF ELISA (Table 94); type: in vivo; conditions: I.M., 400 ug in 100 ul, 5% sucrose, 8 hours after injection
Experimental: Protein production of modified mRNA was evaluated by delivering modified G-CSF mRNA or modified Factor IX mRNA to female Sprague Dawley rats (n=6). […] Blood was collected 8 hours after injection and the G-CSF protein level in serum was measured by ELISA.

## Luciferase: luciferase mRNA, SEQ ID NO: 14, Cap1, fully modified with 5-methylcytosine and pseudouridine
C57/BL6 mice; I.M., Dose 5 ug, 2 hours
  Bioluminescence: 224,000 photon/sec
C57/BL6 mice; I.M., Dose 5 ug, 8 hours
  Bioluminescence: 683,000 photon/sec
C57/BL6 mice; I.M., Dose 5 ug, 24 hours
  Bioluminescence: 927,000 photon/sec
C57/BL6 mice; I.M., Dose 50 ug, 2 hours
  Bioluminescence: 446,000 photon/sec
C57/BL6 mice; I.M., Dose 50 ug, 8 hours
  Bioluminescence: 766,000 photon/sec
C57/BL6 mice; I.M., Dose 50 ug, 24 hours
  Bioluminescence: 509,000 photon/sec
C57/BL6 mice; I.V., 50 μg, 2 hours after dosing
  Bioluminescence of the Spleen: 58,400 photon/sec
C57/BL6 mice; S.C., 50 μg, 2 hours
  Bioluminescence: 3,700,000 photon/sec
C57/BL6 mice; S.C., 50 μg, 8 hours
  Bioluminescence: 8,060,000 photon/sec
C57/BL6 mice; S.C., 50 μg, 24 hours
  Bioluminescence: 2,080,000 photon/sec

B1: G-CSF: modified mRNA encoding human G-CSF, SEQ ID NO: 4, Cap1, fully modified with 5-methylcytosine and pseudouridine; LNP-formulated in Examples 16-22 (nucleic acid)
chain: GGGAAAUAAGAGAGAAAAGAAGAGUAAGAAGAAAUAUAAGAGCCACCAUGGCCGGUCCCGCGACCCAAAGCCCCAUGAAACUUAUGGCCCUGCAGUUGCUGCUUUGGCACUCGGCCCUCUGGACAGUCCAAGAAGCGACUCCUCUCGGACCUGCCUCAUCGUUGCCGCAGUCAUUCCUUUUGAAGUGUCUGGAGCAGGUGCGAAAGAUUCAGGGCGAUGGAGCCGCACUCCAAGAGAAGCUCUGCGCGACAUACAAACUUUGCCAUCCCGAGGAGCUCGUACUGCUCGGGCACAGCUUGGGGAUUCCCUGGGCUCCUCUCUCGUCCUGUCCGUCGCAGGCUUUGCAGUUGGCAGGGUGCCUUUCCCAGCUCCACUCCGGUUUGUUCUUGUAUCAGGGACUGCUGCAAGCCCUUGAGGGAAUCUCGCCAGAAUUGGGCCCGACGCUGGACACGUUGCAGCUCGACGUGGCGGAUUUCGCAACAACCAUCUGGCAGCAGAUGGAGGAACUGGGGAUGGCACCCGCGCUGCAGCCCACGCAGGGGGCAAUGCCGGCCUUUGCGUCCGCGUUUCAGCGCAGGGCGGGUGGAGUCCUCGUAGCGAGCCACCUUCAAUCAUUUUUGGAAGUCUCGUACCGGGUGCUGAGACAUCUUGCGCAGCCGUGAAGCGCUGCCUUCUGCGGGGCUUGCCUUCUGGCCAUGCCCUUCUUCUCUCCCUUGCACCUGUACCUCUUGGUCUUUGAAUAAAGCCUGAGUAGGAAG
modifications: Cap1, 5-methylcytosine, pseudouridine
[1]; IFN-alpha
  protein/cytokine ratio vs natural G-CSF mRNA: 100 fold
[1]; TNF-alpha
  protein/cytokine ratio vs natural G-CSF mRNA: 27 fold
BJ fibroblasts
  time to cytokine response (IFN-beta, IL-6): 2 to 3 days
BJ fibroblasts; 6 hours
  IFN-beta: 0 pg/mL
  IL-6: 3396 pg/mL
BJ fibroblasts; Day 1
  IFN-beta: 38 pg/mL
  IL-6: 3870 pg/mL
BJ fibroblasts; Day 2
  IFN-beta: 1125 pg/mL
  IL-6: 16341 pg/mL
BJ fibroblasts; Day 3
  IFN-beta: 100 pg/mL
  IL-6: 25983 pg/mL
BJ fibroblasts; Day 4
  IFN-beta: 75 pg/mL
  IL-6: 18922 pg/mL
BJ fibroblasts; Day 5
  IFN-beta: 213 pg/mL
  IL-6: 15928 pg/mL
[2]
  freeze/thaw cycles tolerated: 12 cycles
[2]; stored at 25° C., with or without lipoplex
  stable out to: 120 h
[2]; stored at 37° C.
  stable out to: 24 h
[2]; stored at 50° C.
  stable out to: 6 h
Sprague Dawley rats
  G-CSF protein in rat serum: 19.37 pg/mL
